The values that follow are results of earlier work, collected in paper PMC7042059.

For the data set, the target named is Pyruvate kinase M2 (Homo sapiens) (UniProt P14618). To be noted: cited from earlier work.

Pyruvate kinase M2, sequence (P14618 2-531): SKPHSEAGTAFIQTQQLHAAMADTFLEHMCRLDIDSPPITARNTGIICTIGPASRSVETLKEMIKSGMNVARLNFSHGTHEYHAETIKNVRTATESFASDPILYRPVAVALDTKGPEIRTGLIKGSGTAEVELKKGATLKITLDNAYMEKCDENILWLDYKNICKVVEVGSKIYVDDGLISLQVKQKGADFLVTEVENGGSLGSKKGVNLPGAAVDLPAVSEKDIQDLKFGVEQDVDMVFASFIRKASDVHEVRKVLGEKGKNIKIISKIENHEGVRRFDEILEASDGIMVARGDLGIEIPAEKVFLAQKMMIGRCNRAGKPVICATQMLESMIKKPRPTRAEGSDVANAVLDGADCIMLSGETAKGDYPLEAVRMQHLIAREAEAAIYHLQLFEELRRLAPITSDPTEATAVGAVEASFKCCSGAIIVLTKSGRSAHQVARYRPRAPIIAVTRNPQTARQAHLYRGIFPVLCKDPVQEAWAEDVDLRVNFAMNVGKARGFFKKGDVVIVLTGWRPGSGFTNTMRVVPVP

Consider “Pyruvate kinase M2 (from UniProt P14618)”, for which the Kd was 1 µM.
